Measured values taken from paper PMC9974672, “Luteolin protects DYT-PRKRA cells from apoptosis by suppressing PKR activation” (Frontiers in Pharmacology, 2023).

Target: T1, PKR fused to the GAL4 DNA-binding domain (mammalian two-hybrid bait) (UniProt P19525 1-551)
T1 construct: also called GAL4-DBD PKR; source: mammalian two-hybrid fusion, transfected cells (COS-1 by the methods, HeLa by the legends)
Assay: two-hybrid; mammalian two-hybrid, PKR as GAL4-DBD fusion (bait), PACT proteins as VP16-AD fusions (preys), pG5Luc firefly luciferase reporter normalised to pRL-Null; cells untreated, no stress
Settings: partners not purified

T1 sequence (P19525 whole entry, the tested form may be a part): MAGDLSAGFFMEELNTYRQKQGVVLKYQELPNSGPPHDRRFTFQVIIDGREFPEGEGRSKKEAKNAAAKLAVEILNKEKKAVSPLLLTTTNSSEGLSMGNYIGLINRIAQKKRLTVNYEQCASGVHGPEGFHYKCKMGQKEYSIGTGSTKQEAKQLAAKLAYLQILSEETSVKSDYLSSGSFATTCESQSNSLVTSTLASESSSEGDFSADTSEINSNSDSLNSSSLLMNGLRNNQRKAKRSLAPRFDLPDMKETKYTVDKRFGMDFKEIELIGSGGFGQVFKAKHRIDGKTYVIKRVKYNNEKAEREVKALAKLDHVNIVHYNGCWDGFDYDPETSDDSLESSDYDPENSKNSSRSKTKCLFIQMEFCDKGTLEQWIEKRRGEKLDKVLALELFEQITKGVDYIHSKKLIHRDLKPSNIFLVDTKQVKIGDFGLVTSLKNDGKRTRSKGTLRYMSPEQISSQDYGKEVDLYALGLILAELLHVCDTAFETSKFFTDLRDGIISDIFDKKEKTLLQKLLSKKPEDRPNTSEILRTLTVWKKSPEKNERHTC

Row | fold interaction against wt PACT-PKR (two-hybrid luciferase) [fold] | Binder
1 | > 2 | DD (S246D, S287D) phosphomimic mutant PACT fused to the VP16 activation domain (mammalian two-hybrid prey) (natural protein, UniProt O75569 1-313, looked up, PACT ORF with serines 246 and 287 replaced by aspartic acids, in pVP16AASV19N; also called DD PACT; DD mutant; source: mammalian two-hybrid fusion, transfected cells (COS-1 by the methods, HeLa by the legends)) MSQSRHRAEAPPLEREDSGTFSLGKMITAKPGKTPIQVLHEYGMKTKNIPVYECERSDVQIHVPTFTFRVTVGDITCTGEGTSKKLAKHRAAEAAINILKANASICFAVPDPLMPDPSKQPKNQLNPIGSLQELAIHHGWRLPEYTLSQEGGPAHKREYTTICRLESFMETGKGASKKQAKRNAAEKFLAKFSNISPENHISLTNVVGHSLGCTWHSLRNSPGEKINLLKRSLLSIPNTDYIQLLDEIAKEQGFNITYLDIDELSANGQYQCLAELSTSPITVCHGDGISCGNAQSDAAHNALQYLKIIAERK
2 | ~3 | P222L PACT fused to the VP16 activation domain (mammalian two-hybrid prey) (natural protein, UniProt O75569 1-313, looked up, PACT ORF with the DYT-PRKRA patient mutation P222L, in pVP16AASV19N; Plasmid described in Vaughn et al., 2015; Burnett et al., 2020; also called P222L mutant; source: mammalian two-hybrid fusion, transfected cells (COS-1 by the methods, HeLa by the legends)) MSQSRHRAEAPPLEREDSGTFSLGKMITAKPGKTPIQVLHEYGMKTKNIPVYECERSDVQIHVPTFTFRVTVGDITCTGEGTSKKLAKHRAAEAAINILKANASICFAVPDPLMPDPSKQPKNQLNPIGSLQELAIHHGWRLPEYTLSQEGGPAHKREYTTICRLESFMETGKGASKKQAKRNAAEKFLAKFSNISPENHISLTNVVGHSLGCTWHSLRNSLGEKINLLKRSLLSIPNTDYIQLLSEIAKEQGFNITYLDIDELSANGQYQCLAELSTSPITVCHGSGISCGNAQSDAAHNALQYLKIIAERK
